Our source for the Kd values is PMC7060403 (Journal of molecular biology, 2019).

The experiment addresses T1, RavP-C (C-terminal region of the rabies virus phosphoprotein, residues 140-297) (rabies virus, UniProt P22363 140-297).
T1 sequence: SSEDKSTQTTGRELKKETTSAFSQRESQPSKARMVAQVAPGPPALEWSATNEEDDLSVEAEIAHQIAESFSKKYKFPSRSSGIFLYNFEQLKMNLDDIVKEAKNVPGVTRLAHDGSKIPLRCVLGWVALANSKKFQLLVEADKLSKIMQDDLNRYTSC
The experiment can be described thus: ITC. (In general: In ITC the heat of successive injections is recorded.)

B1: LC8 from Drosophila melanogaster (natural protein, UniProt Q24117 1-89, looked up)
chain: MSDRKAVIKNADMSEEMQQDAVDCATQALEKYNIEKDIAAYIKKEFDKKYNPTWHCIVGRNFGSYVTHETRHFIYFYLGQVAILLFKSG
B1: the Kd (commonly a measure of binding affinity in units of concentration) is 4.19 µM.
